Experiments:
[1] = target: Rhodamine-labeled GMPCPP-stabilized microtubules from porcine tubulin (10 % rhodamine-labeled tubulin) (porcine) (UniProt P02550); experiment: single-molecule TIRF microscopy
[2] = target: GMPCPP-stabilized microtubules polymerized from porcine tubulin (porcine) (UniProt P02550); experiment: optical tweezers with 2D force clamp

**Q.** What does the source list for “Full-length budding yeast Kip3 (Kip3-eGFP-His6) (from UniProt P53086 1-805) (natural protein)”?
**A.** mean end residence time at the microtubule plus end (no load) [1]: 80 s; mean run time on the microtubule (no load) [1]: 150 s; end residence time at the microtubule plus end (sideward load 0.5 pN) [2]: 33 s; end residence time extrapolated to zero load from the high-assisting-load data [2]: 17 s; mean end residence time at the microtubule plus end (without load) [2]: 64 s

Source: doi:10.1101/844829
